This assay deals with 天然TSLP. Nature of the assay: cell-based or functional assay.

The record followed here is patent CN114605536A.

The substance Tezepelumab (antibody) yielded a 抑制天然TSLP诱导的SW756-STAT5-Luciferase报告基因细胞STAT5磷酸化活性的IC50 of 1.45 ng/mL.
